test: yeast display, Sf9 membrane polyspecificity reagent, FACS + sequencing; frameworks hold sequencing errors
Outline: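 Nanobodies came from a synthetic yeast display library in Saccharomyces cerevisiae BJ5465, induced with galactose for 36–48 hours and stained for 1 hour at 4 °C with 10% biotinylated, detergent-solubilized Sf9 membrane reagent. Cells were enriched on streptavidin microbeads and then FACS-sorted, with low and high (top ~1%) gates set on anti-HA fluorescence for expression and streptavidin fluorescence for reagent binding. Each polyreactivity label reflects the gate a clone came from. Genes were amplified by colony PCR, sequenced by MiSeq 2 × 250 and filtered by CDR length.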

| Sequence | polyreactivity (PSR sort gate) |
| --- | --- |
| QVQLVESGGGLVQAGGSLRLSCAASGFISDVYAMGWYRQAPGKERELVAVITWRGSTYYADSVKGRFTISRDNAKNTVYLQMNSLKPEDTAVYYCAAESQGDWAFDYWGQGTQVTVSS | low polyreactivity |
| QVQLVESGGGLVQAGGSLRLSCAASGFISGKYAMGWYRQAPGKERELVASIRSGGSTNYADSVKGRFTISRDNAKNTVYLQMNSLKPEDTAVYYCAKLRGSRGVIYDYWGQGTQVTVSS | high polyreactivity |
| QVQLVESGGGLVQAGGSLRLSCAASGFISGVNTMGWYSQAPGKERELVAAISSGGRTHYADSVKGRFTISRDNAKNTVYLQMNSLKPEDTAVYYCATRVRSTTRYYYWGLGTQVTVSS | high polyreactivity |
| QVQLVESGGGLVQAGGSLRLSCAASGFISRAYAMGWYRQAPGKERELVAAISVRVGSTYYADSVKGRFTISRDNAKNTVYLQMNSLKPEDTAVYYCAALRPWPRYDYWGQGTQVTVSS | high polyreactivity |
| QVQLVESGGGLVQAGGSLRLSCAASGFISRYYGMGWYRQAPGKERELVAAISWSGGRTHYADSVKGRFTISRDNAKNTVYLQMNSLKPEDTAVYYCATDRYYRPGGEYDYWGQGTQVTVSS | high polyreactivity |
| QVQLVESGGGLVQAGGSLRLSCAASGFISSHYAMGWYRPAPGKEWEVVATISSGGSTYADSVKGRFTISRDNAKNTVYLQMNSLKPEDTAVYYCAKRYYKSLNRDEFDSWGQGTQVTVSS | high polyreactivity |
| QVQLVESGGGLVQAGGSLRLSCAASGFISVRNAMGWYRQAPGKEREFVAAISGGGGSTYYADSVKGRFTISRDNAKNTVYLQMNSLKPEDTAVYYCNAPRYLYSAGRFNYWGQGTQVTVSS | high polyreactivity |
| QVQLVESGGGLVQAGGSLRLSCAASGFISYYYAMGWYRQAPGKERELVAAITKSGGSTYYADSVKGRFTIARDNAKNTVSLQMNSLKPEDTAVYYCAAVRSTRNSTSRLYGYWGQGTQVTVSS | low polyreactivity |
| QVQLVESGGGLVQAGGSLRLSCAASGFIVDTYAMGWYRQAPGKERELVAVISSSGGRTYYADSVKGRFTISRDNAKNTVYFQMNSLKPEDTAVYYCAARWYSGYGRFDYWGQGTQVTVSS | high polyreactivity |
| QVQLVESGGGLVQAGGSLRLSCAASGFIVSTKVMGWYRQAPGKERELVADINTGGSTSYADSVKGRFTNSRDNAKNTVYLQMNSLKPEDTAVYSCAAVLQYYYLSTDDPYDYWGQGTQVTVSS | low polyreactivity |
| QVQLVESGGGLVQAGGSLRLSCAASGFIYGGNPRGWYRQAPGKERELVAANRSGGSTYYADSVKGRFTISRDNAKNTVYLQMNILKPEDTAVYYCAVRLRYAYRARGNYWGQGTQVTVSS | low polyreactivity |
| QVQLVESGGGLVQAGGSLRLSCAASGFIYKFYAMGWYRQEPGKVRELVAAISDSGGSTYYADSVKGRFTISRDNAKNTVYLQMNSLKPEDTAVYYCNADWSWNNYYDFDYWGLGTQVTVSS | low polyreactivity |
| QVQLVESGGGLVQAGGSLRLSCAASGFIYSNNAMGWYRQAPGKERELVAAISASGSSTYYADSVKGRFTISRDNAKNTVYLQMNSLKPEDTAVYYCAAKSRTYQSYYYWGQGTQVTVSS | high polyreactivity |
| QVQLVESGGGLVQAGGSLRLSCAASGFIYSRYAMGWYRQAPRKEMDFFAAISRNGGSTYYADSVKGRITISRDNAKNTVYLQMNSLKPDDTAVYYCIAPYFVTSTYANTLGFDYWGQGTQVTVSS | high polyreactivity |
| QVQLVESGGGLVQAGGSLRLSCAASGFMFSRYAMGWYRQAAGTERELVAAITSSGGRTYYADSVKGRFTISRDNAKNTVYLQMTSLKPEDTAVYYCNADLGSWYTWFDYWGQGTQVTVSS | high polyreactivity |
| QVQLVESGGGLVQAGGSLRLSCAASGFNFPVNAMGWYRQAPGTERELVASITRSGGRTYYADSVKGRLTISRDNAKNTVYLQMNSLKPEDTAVYYCAARYLQEYVYEYDYWGQGTQVTVSS | high polyreactivity |
| QVQLVESGGGLVQAGGSLRLSCAASGFNFRANGMGWYRQAPGKERELVATITSGGTTNYADSVKGRFTITRDNAKNTVYLQMNSLKPEDTAVYYCAKRFVQAYFRLYDYWGQGTQVNVSS | low polyreactivity |
| QVQLVESGGGLVQAGGSLRLSCAASGFNFSYYAMGWYRQAPGKERELVAAINSGGVRTYYADSVKGRFTISRDNAKNTVYLQMNSLKPEDTAVYYCAARRHDSRYQYDYWGQGTQVTVSS | high polyreactivity |
| QVQLVESGGGLVQAGGSLRLSCAASGFNFSYYVMGWSRQAPGKERELVAAITKSGGSTYYADSVKGRFTISRDNAKNTVYLQMNSLKPEDTAVYYCAAVRGYRGYDYWGQGTQVTVSS | high polyreactivity |
| QVQLVESGGGLVQAGGSLRLSCAASGFNFTAYAMGWYRQAPGKERELVAAISSGGSTNYADSVKGRFTISRDNAKNSVYLQMNSLKPEDTAVYYCAALLRGIEYDYWGQGTQVTVSS | high polyreactivity |
| QVQLVESGGGLVQAGGSLRLSCAASGFNFYLNAMGWYRQAPGKERELVAAISSSGGITYYADSVKGRFTISRDNAKNTVYLQMNSLKPEDTADYSCAAYWPKYRYEAERDYWGQGTQVTVSS | low polyreactivity |

| Sequence | polyreactivity (PSR sort gate) |
| --- | --- |
| QVQLVESGGGLVQAGGSLRLSCAASGFNYSQYAMGWYRQAPGKERELVAAITTTGGSTYYADSVKGRFTISRDNAKNTVYLQMNSLKPDDTAVYYCAARYVRTVRGGYWGQGTQVTVSS | high polyreactivity |
| QVQLVESGGGLVQAGGSLRLSCAASGFSFDSYALGWYRKAPGKERELVAAISRSGGSTYYADSVKGRFTISRDNAKNTVYLQMNSLKPEDTAVYYCARDRDSWGGHDSWGQGTQVTVSS | high polyreactivity |
| QVQLVESGGGLVQAGGSLRLSCAASGFSFFKYAMGWYRQAPGKERELVAAISSSGGSTYYADSVKGRFTISRDNAKKTVYLQMNSLKPEDTAVYYCAVDNLKCRAQSLDGFDYWGQGTQVTVSS | high polyreactivity |
| QVQLVESGGGLVQAGGSLRLSCAASGFSFGIYAMGWYRQAPGKERELVADITASGGSTYYADSVKGRFTISRDNAKNTVYLQMNSLKPEDTAVYYCAADGWWHNFYPGTGLDYWGQGTQVTVSS | low polyreactivity |
| QVQLVESGGGLVQAGGSLRLSCAASGFSFPYAMGGYRQAPGKERELVAGISWSGGSTYYADSVKGRFTISRDNAKNTVYLQMNSLKPEDTAVYNCNKYVQSGGTYDYWGQGTQVTVSS | low polyreactivity |
| QVQLVESGGGLVQAGGSLRLSCAASGFSFQLYPMGWYRQAPWKERELVSAISQSGDSTYYADSVKGRFTISRDNAKNTVYLQMNSQKPEDNAVYYFNAVNDGVVWSYPFDFDYWGQGTQVTVSS | low polyreactivity |
| QVQLVESGGGLVQAGGSLRLSCAASGFSFYNYAMGWYRQAPGKERELVAAISWSGGSTHYADSVKGRFTISRDNAKNTVYLQMNSLKPEDTAVYYCAKVGVLGYYTYYYWGQGTQVTVSS | low polyreactivity |
| QVQLVESGGGLVQAGGSLRLSCAASGFTCKYYAMGWYRQAPGKERELVASINWSGGRTSYADSVKGRFTISRDNAKNTVYLQMNSLKREDTAVYYCARTPAGRGEYWGQGSQVTVSS | low polyreactivity |
| QVQLVESGGGLVQAGGSLRLSCAASGFTCSSNAMGWSRLAAGKERELVAAISSSGARTYYADSVKGRFTISRDNAKTTVYLQMNSLKPEDTAVYYCNARGLAGRKGYDYGGQGTQVTVSS | high polyreactivity |
| QVQLVESGGGLVQAGGSLRLSCAASGFTFAANTMGWYRQAPGKERELVADISGRGDRTSYADSVKGRFTISRDNAKNTVYLQMNSLKPEDTAVYYCAVDIYYYSNVHYYYWGQGTQVTVSS | low polyreactivity |
| QVQLVESGGGLVQAGGSLRLSCAASGFTFADYAMGWYRQAPGKEREWVAAISNGGSTTYADSVKGRFTSSRDNAKNTVYLQMNTLNPEDTAVYYCAAALSSYGWYAYGPWYGYWGQGTQVTVSS | high polyreactivity |
| QVQLVESGGGLVQAGGSLRLSCAASGFTFAFNDMGWYRQAPGKERELVAAITWSGGSTYYADSVKGRFTISRDNAKNTVYLQMNSLKPEDTAVYYCNADLLGYVYLNLPVGSWGQGTQVTVSS | low polyreactivity |
| QVQLVESGGGLVQAGGSLRLSCAASGFTFAFYAMGRYRQAPGKERELVAAISRRGGSTTYADSVKGRFTISRDNAKNTVYLQMNSLKPEDTAVYYCNAVSTRNPGPDYYYWGQGTQVTVSS | high polyreactivity |
| QVQLVESGGGLVQAGGSLRLSCAASGFTFAFYAMGWYRQAPGKERELVAAISKNDGTTYYADSVKGRFTISRHTAKNTVYLLMNSLKPEDTAVYYCAAESCYPVYTYVSSGDYWGQGTQVTVSS | low polyreactivity |
| QVQLVESGGGLVQAGGSLRLSCAASGFTFAFYTLGWYIQATGKETELVASISWRSGSTYYADSVKGRFTISRDNAKNSVYLQMNSLNPDDTAVYYCAADSAVSWFFYCGQGTQVTVSS | high polyreactivity |
| QVQLVESGGGLVQAGGSLRLSCAASGFTFAGYAMGWYRLAPGKVRELVAAISWRGGSTYYADSVKGRFTISRDNAKNTVYLQMNSLKPEDTAVYYCAAASRKRTSREPLDYWGQGTQVTVSS | high polyreactivity |
| QVQLVESGGGLVQAGGSLRLSCAASGFTFAGYAMGWYRQAPGKERELVAPINRGGSTYYADSVKGRFTISRDNAKNTVYLQMNSLKQEDTAVYYCADRQEPGWYPDVWWEYDYWGQGTQVTVSS | low polyreactivity |
| QVQLVESGGGLVQAGGSLRLSCAASGFTFALYAMGWYRQAPGKEREFVAAITRSGGITYYADSVKGRFTFSRDNAKNTVYLQINSLKPEDTAVYYCAAVPRWSVYRAYGYWGQGTQVTVSS | high polyreactivity |
| QVQLVESGGGLVQAGGSLRLSCAASGFTFALYAMGWYRQAPGKERELVASIDNGVSTNYADSVKGRFTISRDNAKNTVYLQMTSLKPEDTAVYYCAKGPGYGLYKLLSYDSWGQGTQVTVSS | low polyreactivity |
| QVQLVESGGGLVQAGGSLRLSCAASGFTFANNAMGWYRQAPGKERELVAAISWNGGSTFYADSVKGRFTISRDNAKNTVYLQMNSLKPEDTAVYYCNTVASYYRWKSYYYWGQGTQVTVSS | high polyreactivity |
